Experimental data taken from the supplement of paper PMC7877785.
± gives the uncertainty stated by the source.

Test: self-splicing fitness, log relative to wild type (ln ratio); higher = more splicing; Tetrahymena group I intron in knt gene, E. coli kanamycin selection, DiMSum; sequences stand for … in CUCUCU…GGAGGGAAAAGUUAUCAGGCAUGCACCUGGUAGCUAGUCUUUAAACCAAUAGAUUGCAUCGGUUUAAAAGGCAAGACCGUCAAAUUGCGGGAAAGGGGUCAACAGCCGUUCAGUACCAAGUCUCAGGGGAAACUUUGAGAUGGCCUUGCAAAGGGUAUGGUAAUAAGCUGACGGACAUGGUCCUAACCACGCAGCCAAGUCCUAAGUCAACAGAUCUUCUGUUGAUAUGGAUGCAGUUCACAGACUAAAUGUCGGUCGGGGAAGAUGUAUUCUUCUCAUAAGAUAUAGUCGGACCUCUCCUUAAUGGGAGCUAGCGGAUGAAGUGAUGCAACACUGGAGCCGCUGGGAACUAAUUUGUAUGCGAAAGUAUAUUGAUUAGUUUUGGAGUACUCGUGGUCG
How it was run: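 Colonies from six replicate transformations of E. coli BL21(DE3) were pooled and amplicon-sequenced on an Illumina HiSeq 2500. The library placed an intron with all eight P1ex-region nucleotides randomised inside the knt kanamycin-resistance gene on pET-22b(+), and cells grew overnight at 37°C or 30°C on LB agar with or without 25 μg/mL kanamycin (plus 100 μg/mL carbenicillin, 50 μM IPTG, 0.2% rhamnose). Fitness is the DiMSum error-weighted combination of wild-type-normalised replicate fold changes, kanamycin versus none.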

Sequence	self-splicing fitness (ln) (30 °C)	self-splicing fitness (ln) (37 °C)
CUCCAGCAAUAUUACGCCUU	-2.33 ± 0.18	-2.29 ± 0.27
UAAGAGCAAUAUUACGUCUA	-0.273 ± 0.093	-0.548 ± 0.1
UACUAGCAAUAUUACGAACA	-0.0493 ± 0.19	-0.55 ± 0.15
UGCAAGCAAUAUUACGUAGG	-3.31 ± 0.21	-0.277 ± 0.14
CACGAGCAAUAUUACGCAAC	-1.88 ± 0.44	-2.56 ± 0.36
GCAGAGCAAUAUUACGGAAA		-2.15 ± 0.43
UGAAAGCAAUAUUACGGGAU	-2.6 ± 0.18	-3.48 ± 0.39
GUAGAGCAAUAUUACGUCUC	-0.285 ± 0.092	-0.305 ± 0.099
GCAAAGCAAUAUUACGGAUA	-2.49 ± 0.13	-1.6 ± 0.1
GAGUAGCAAUAUUACGCUGU	-3.36 ± 0.23	-1.48 ± 0.22
AACAAGCAAUAUUACGACGA	-1.15 ± 0.07	-0.468 ± 0.074
UCAUAGCAAUAUUACGAGGG	-2.24 ± 0.21	-1.83 ± 0.29
UCUCAGCAAUAUUACGCUCC	-1.02 ± 0.39	
GGGCAGCAAUAUUACGGCAU	0.216 ± 0.12	-0.928 ± 0.12
AUUAAGCAAUAUUACGCGGG	-2.61 ± 0.22	-1.72 ± 0.17
AAAUAGCAAUAUUACGCCCC	-1.71 ± 0.32	0.0438 ± 0.38
UCAGAGCAAUAUUACGUCCU	-3.91 ± 0.42	
CAGUAGCAAUAUUACGCCAG	-0.7 ± 0.1	-0.109 ± 0.15
CCGCAGCAAUAUUACGUAAG	0.385 ± 0.056	-0.112 ± 0.062
CCAGAGCAAUAUUACGCCAA		-3.04 ± 0.47
GCGAAGCAAUAUUACGCGAU	-2.49 ± 0.44	-1.74 ± 0.47
AAUUAGCAAUAUUACGUUUC	-2.89 ± 0.23	-1.57 ± 0.23
AUGCAGCAAUAUUACGAUUA	-1.32 ± 0.1	-0.923 ± 0.1
UUGAAGCAAUAUUACGGCGU	-0.215 ± 0.11	0.00688 ± 0.13
UUUGAGCAAUAUUACGAGAA		-2.17 ± 0.46

Sequence	self-splicing fitness (ln) (30 °C)	self-splicing fitness (ln) (37 °C)
AAAUAGCAAUAUUACGUUUC	-3.46 ± 0.39	
CGGUAGCAAUAUUACGUGUC	-2.99 ± 0.34	-2.5 ± 0.21
AGAGAGCAAUAUUACGAUAU	-2.21 ± 0.47	-2.2 ± 0.43
UAGAAGCAAUAUUACGUAGA	-2.4 ± 0.095	-1.79 ± 0.11
GAUUAGCAAUAUUACGCCCA	-0.748 ± 0.11	0.123 ± 0.14
UCUGAGCAAUAUUACGUAUU	-4.55 ± 0.25	-3.08 ± 0.25
CAUGAGCAAUAUUACGGUAC	-2.67 ± 0.41	-2.32 ± 0.34
UUGCAGCAAUAUUACGUCGC	-3.09 ± 0.28	-2.16 ± 0.35
CGCUAGCAAUAUUACGCUCU	-1.58 ± 0.1	-0.837 ± 0.099
UCCGAGCAAUAUUACGUCAU	-3.59 ± 0.27	-2.75 ± 0.44
GCACAGCAAUAUUACGGACA	-1.02 ± 0.1	-0.584 ± 0.11
AUGCAGCAAUAUUACGAAUC	-3.82 ± 0.24	-2.87 ± 0.2
UUUUAGCAAUAUUACGCCUU	-1.74 ± 0.34	-0.968 ± 0.22
UCUAAGCAAUAUUACGUCAG	-1.23 ± 0.073	-0.611 ± 0.08
CCGGAGCAAUAUUACGCUUG	-2.67 ± 0.24	-2.22 ± 0.27
CUGAAGCAAUAUUACGUGGC	-1.58 ± 0.077	-0.491 ± 0.099
GUUUAGCAAUAUUACGGCUG	-1.79 ± 0.1	-0.169 ± 0.17
UCCUAGCAAUAUUACGGUGG	-3.31 ± 0.15	-2.32 ± 0.13
CAUAAGCAAUAUUACGGAUG	-3.14 ± 0.14	-2.17 ± 0.15
GUAAAGCAAUAUUACGCGUA	-1.25 ± 0.094	-0.105 ± 0.12
GCGUAGCAAUAUUACGGGGA	-2.23 ± 0.32	-2.89 ± 0.35
CAGUAGCAAUAUUACGGAAA	-3.56 ± 0.47	-3.19 ± 0.4
AUGGAGCAAUAUUACGAAGA		-1.17 ± 0.33
UUCUAGCAAUAUUACGCAGA	-2.04 ± 0.32	-1.1 ± 0.23
GAACAGCAAUAUUACGCCCG	-2.49 ± 0.22	-0.797 ± 0.2

Sequence	self-splicing fitness (ln) (30 °C)	self-splicing fitness (ln) (37 °C)
AUGCAGCAAUAUUACGUCCG	-2.16 ± 0.11	-1.27 ± 0.14
GCGAAGCAAUAUUACGGGCG	-1.84 ± 0.11	-0.509 ± 0.13
CUUGAGCAAUAUUACGUUUA	-3.56 ± 0.26	-2.88 ± 0.28
GGUCAGCAAUAUUACGAAUG	-0.0371 ± 0.078	-0.989 ± 0.1
ACCCAGCAAUAUUACGGAAC	-1.91 ± 0.058	-0.721 ± 0.066
CCCGAGCAAUAUUACGCCCU		-2.24 ± 0.33
GCAGAGCAAUAUUACGGUAA	-3.52 ± 0.27	-2.36 ± 0.21
UGAUAGCAAUAUUACGGAAA	-4.03 ± 0.43	-2.2 ± 0.27
GUUUAGCAAUAUUACGAACU		-2.69 ± 0.44
CAAGAGCAAUAUUACGCACU	-3.06 ± 0.33	
AUUGAGCAAUAUUACGCCCA	-2.25 ± 0.25	-1.39 ± 0.39
AACUAGCAAUAUUACGGGGU	-3.93 ± 0.3	-2.34 ± 0.18
GCACAGCAAUAUUACGUUUG	-1.62 ± 0.066	-1.08 ± 0.089
AACAAGCAAUAUUACGGGGG	-2.94 ± 0.17	-1.86 ± 0.17
UAUCAGCAAUAUUACGCCGC	-1.58 ± 0.19	-2.02 ± 0.27
ACAGAGCAAUAUUACGUCUG	-2.35 ± 0.18	-1.03 ± 0.21
UUACAGCAAUAUUACGAGAG	-1.48 ± 0.11	-2.4 ± 0.15
GCUCAGCAAUAUUACGCCUC	-1.49 ± 0.2	0.48 ± 0.22
UAAGAGCAAUAUUACGACUA	-0.436 ± 0.11	0.314 ± 0.11
AGCUAGCAAUAUUACGAAAC		-1.95 ± 0.43
GCCCAGCAAUAUUACGGACU	-2.51 ± 0.16	-0.873 ± 0.21
UUGAAGCAAUAUUACGCCAU	-1.71 ± 0.086	-1.56 ± 0.12
CUUAAGCAAUAUUACGCUAA	-3.21 ± 0.39	-1.58 ± 0.3
CCUGAGCAAUAUUACGAUCA	-3.05 ± 0.32	-2.42 ± 0.24
UUCGAGCAAUAUUACGACUA	0.544 ± 0.39	-1.15 ± 0.24

Sequence	self-splicing fitness (ln) (30 °C)	self-splicing fitness (ln) (37 °C)
UAAUAGCAAUAUUACGUGAG	-1.76 ± 0.088	-1.47 ± 0.12
GGCCAGCAAUAUUACGGCGU	-1.59 ± 0.098	-0.69 ± 0.12
GGAAAGCAAUAUUACGAUAA	-1.32 ± 0.14	-0.198 ± 0.16
UCAGAGCAAUAUUACGAGCA		-2.06 ± 0.48
GUCUAGCAAUAUUACGAGAG	-2.4 ± 0.17	-1.33 ± 0.12
GGCCAGCAAUAUUACGUGGC	-0.533 ± 0.25	-1.69 ± 0.35
AAAGAGCAAUAUUACGCGAU	-2.63 ± 0.35	-2.04 ± 0.34
GGUUAGCAAUAUUACGGUUG	-2.73 ± 0.32	-1.57 ± 0.33
AGGUAGCAAUAUUACGACCG	-0.101 ± 0.02	0.197 ± 0.039
GUGCAGCAAUAUUACGAAAC	-1.82 ± 0.1	-1.26 ± 0.095
AAGAAGCAAUAUUACGACGC	-0.655 ± 0.12	-0.0572 ± 0.17
AGCCAGCAAUAUUACGUCUU	-1.23 ± 0.072	-0.744 ± 0.089
CUCCAGCAAUAUUACGUAUG	-2.03 ± 0.077	-1.8 ± 0.087
GCAGAGCAAUAUUACGCCGG	-2.85 ± 0.45	-0.641 ± 0.35
UUAGAGCAAUAUUACGGUCC	-2.67 ± 0.42	
UAGAAGCAAUAUUACGUGCU	-2.8 ± 0.21	-2.42 ± 0.24
CAGUAGCAAUAUUACGUAAU	-4 ± 0.28	-2.63 ± 0.44
AGCGAGCAAUAUUACGAAGA		-2.72 ± 0.34
UUCUAGCAAUAUUACGAUGC	-2.12 ± 0.3	-2.86 ± 0.38
UCCGAGCAAUAUUACGGUAG	-3.6 ± 0.14	-2.43 ± 0.15
CCGAAGCAAUAUUACGGCCC	-3.55 ± 0.3	-1.71 ± 0.38
AUUUAGCAAUAUUACGAGAU	-3.55 ± 0.4	-1.41 ± 0.28
GAGAAGCAAUAUUACGUGGG	-2.74 ± 0.14	-2.29 ± 0.19
CAAUAGCAAUAUUACGUGUG	-1.72 ± 0.053	-0.748 ± 0.063
